This note sets out measurements from patent US20220041716A1 (BEIJING NEOLETIX BIOLOGICAL TECHNOLOGY, published 2022).

Assay [1] concerns the target T1, human extracellular domain of TLT-1-Fc tagged protein (sTLT-1-Fc) (UniProt Q86YW5 16-162).
T1 chain: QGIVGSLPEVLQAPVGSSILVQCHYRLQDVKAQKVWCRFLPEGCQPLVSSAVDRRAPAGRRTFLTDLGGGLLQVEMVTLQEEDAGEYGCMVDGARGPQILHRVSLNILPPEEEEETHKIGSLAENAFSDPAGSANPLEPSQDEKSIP
As to the kind of experiment: ELISA.

Assay [2] addresses T2, mouse TLT-1 on activated mouse platelets (mouse, UniProt Q8K558 21-317).
T2 construct: whole, on cells
T2 sequence (looked up): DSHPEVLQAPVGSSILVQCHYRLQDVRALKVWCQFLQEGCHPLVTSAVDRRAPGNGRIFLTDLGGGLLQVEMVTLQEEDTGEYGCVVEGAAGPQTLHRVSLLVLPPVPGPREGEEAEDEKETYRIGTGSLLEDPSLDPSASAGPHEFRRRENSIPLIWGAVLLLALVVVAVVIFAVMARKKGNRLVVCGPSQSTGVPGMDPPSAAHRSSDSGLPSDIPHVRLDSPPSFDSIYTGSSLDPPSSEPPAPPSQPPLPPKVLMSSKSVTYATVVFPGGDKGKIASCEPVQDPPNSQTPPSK
As to the kind of experiment: flow cytometry, collagen-activated mouse platelets in whole blood, FITC anti-His detection. On the procedure:
To prepare activated human platelets, ADP (5 and 20 μM) were preincubated with human whole blood and the above proteins were then added to the ADP-treated whole blood. To prepare activated mouse platelets, collagen, at either 5 μg/ml or 10 μg/ml, was preincubated with mouse whole blood and the above proteins were then added to the […] whole blood. The binding of the proteins with platelets was detected with FITC-labeled—anti-His tag antibody.
The binding capability of sdAb 2-33TLT-His, sdAb sTF₂₀₉-PC1-sdAb 2-33TLT-His and sTF₂₀₉-PC1-sdAb 2-90TLT-His proteins to both human and mouse resting and activated platelets was tested by FACS assay. Citrated human (3 donors) and mouse (12 mice) whole blood were collected at room temperature (RT) and 10 μL of whole blood was used for each sample. To activate human platelets, ADP (5 and 20 μM) was used, and incubated with whole blood for 10 min at room temperature (RT). To activate mouse platelet, Type I fibrillary collagen (5 and 10 ug/ml) was used and incubated with whole blood for 10 min at room temperature (RT). […] After incubation for 30 min at room temperature, all samples were fixed with 500 μL of 5% paraformaldehyde for 10 min at RT and. analyzed by FACS (LSR II, Beckon Dickinson, San Jose, Calif.).
In general terms: Flow cytometry measures light scatter and fluorescence of single cells or particles in a stream.

For assay [3], the target named is T3, human extracellular domain of TLT-1-Fc tagged protein (sTLT-1-Fc) (human, UniProt Q86YW5 16-162).
T3 construct: also called SILT-1-Fc; extracellular domain of human TLT-1; not shown: Fc tag
T3 sequence: T1 chain
The assay can be described thus: ELISA, human TLT-1 extracellular domain coated, anti-His-HRP detection, Kd fitted from OD450. On the procedure: The extracellular domain of human TLT-1 protein was coated onto a 96-well plate for ELISA. After 24 hours incubation at 4° C. and 2 hours of blocking at room temperature (RT) with the blocking buffer, increasing concentrations of ten anti-TLT-1 sdAbs, sTF₂₀₉-PC1sdAb 2-33TLT-His and sTF₂₀₉-PC2sdAb 2-90TLT-His proteins were added to the respective wells for 1-hour incubation at RT. Anti-His tag—HRP-labeled antibody was used to evaluate the binding.
The binding of sdAb 2-33TLT-His, sdAb 2-132TLT-His, sdAb 2-25TLT-His, sdAb 2-64 TLT-His, sdAb 2-90TLT-His, sdAb 2-127TLT-His, sdAb 2-2 TLT-His, sdAb 3-32TLTcur-His; sdAb 3-38TLT-His and sdAb 2-69TLT-His, sTF₂₀₉-PC1-sdAb 2-33TT-His and s TF₂₀₉-PC1-sdAb 2-90TLT-His proteins to the human extracellular domain of TLT-1-Fc tagged protein (sTLT-1-Fc) was analyzed using ELISA, sTLT-1-Fc (3 μg/ml) was immobilized onto a 96-well plate for 24 hours at 4° C. and each well immobilized with SILT-1-Fc was blocked with 2% BSA PBST (PBS plus 0.1% Tween 20) for 2 hours at room temperature (RT). Serial dilution (1000 nM to 0.001 nM) of TLT-sdAbs and sTF-sdAb fusion proteins was performed and diluted proteins were then added to the coated 96-well platelet and incubated for 1 hour. After 3 times of washing with PBST, anti-His HRP antibody was added and incubated for 1 hour at RT. The plate was then washed for 3 times to remove the excess HRP conjugate and 100 μL TMB substrate was then added and incubated for 10-15 mins. To stop the reaction of color development, 2M sulfuric acid was added to the well.
In general terms: An ELISA detects its analyte on a solid surface through an enzyme-linked reagent.

Assay [4] concerns the target T1, human extracellular domain of TLT-1-Fc …. The assay can be described thus: ELISA.
Assay [5] has the same target. The assay can be described thus: ELISA; second row printed 2-33; plot key shows sdAb 2-90TLT-His.

B1: sTF209-PC1-sdAb 2-90TLT-His (other)
chain: MASMSGTTNTVAAYNLTWKSTNFKTILEWEPKPVNQVYTVQISTKSGDWKSKCFYTTDTECDLTDEIVKDVKQTYLARVFSYPAGNVESTGSAGEPLYENSPEFTPYLETNLGQPTIQSFEQVGTKVNVTVEDERTLVRRNNTFLSLRDVFGKDLIYTLYYWKSSSSGKKTAKTNTNEFLIDVDKGENYCFSVQAVIPSRTVNRKSTDSPVECGSGGGTGGGSGGSGGGTGGGSGAIEPRSFSQNQVQLVESGGGLVQAGGSLTLSCAASGSTSGINVMAWYRQAPGKQRELVANKARGGLPKYADFAKGRFTISRDNTKNTISLQMNSLKPEDTAVYYCNALLDWRLGDYWGQGTQVTVSSHHHHHH
notes: the entry also holds vector-derived N-terminal residues
As to B1, the Kd (as a rule, the constant that tells how readily two partners part at equilibrium) in assay [1] is 1.19 nM; in assay [3], below 10 nM. In assay [2], the binding result is given as “binds”.

B2: sTF209-PC1-sdAb 2-33TLT-His (other)
chain: MASMSGTTNTVAAYNLTWKSTNFKTILEWEPKPVNQVYTVQISTKSGDWKSKCFYTTDTECDLTDEIVKDVKQTYLARVFSYPAGNVESTGSAGEPLYENSPEFTPYLETNLGQPTIQSFEQVGTKVNVTVEDERTLVRRNNTFLSLRDVFGKDLIYTLYYWKSSSSGKKTAKTNTNEFLIDVDKGENYCFSVQAVIPSRTVNRKSTDSPVECGSGGGTGGGSGGSGGGTGGGSGAIEPRSFSQNQVQLVESGGGLVQPGGSLTLSCAASGSIANIGGMAWYRRLPGNKRAMVASITSAGTASSYIDSVKGRFTISRDNAKNTVYLQMTSLKPEDTAVYLCKAWDRDLVDYWGQGIQVTVSSHHHHHH
notes: the entry also holds vector-derived N-terminal residues; also called sTF209-PC1-dAb 2-33TLT-His; sTF209-sdAb 2-33TLT-His
Regarding B2, the equilibrium dissociation constant (Kd) in assay [1] was 2.28 nM; in assay [3], below 10 nM.

B3: sdAb 2-90TLT-His (VHH)
VHH: QVQLVESGGGLVQAGGSLTLSCAASGSTSGINVMAWYRQAPGKQRELVANKARGGLPKYADFAKGRFTISRDNTKNTISLQMNSLKPEDTAVYYCNALLDWRLGDYWGQGTQVTVSS
notes: also called sdAb-2-90-His
Turning to B3, the dissociation constant (Kd) in assay [4] was 2.39 nM; in assay [3], below 10 nM; in assay [5], 2.67 nM. Also, the binding result in assay [2] was “binds”.

B4: sdAb 2-33TLT-His (VHH)
VHH: QVQLVESGGGLVQPGGSLTLSCAASGSIANIGGMAWYRRLPGNKRAMVASITSAGTASSYIDSVKGRFTISRDNAKNTVYLQMTSLKPEDTAVYLCKAWDRDLVDYWGQGIQVTVSS
notes: also called sdAb-2-33-His
For B4, the Kd in assay [4] was 2.74 nM; in assay [1] it was 4.47 nM; in assay [3] it was below 10 nM.
